The values that follow are results of earlier work, collected in article PMC9280966 (ACS Omega, 2022).

The data set has as its target RHEB (Homo sapiens, UniProt Q15382). The settings on record: read-out: KD with RHEB (BLI); BLI analysis, earlier study; ref [12].

Chain of RHEB (Q15382 whole entry): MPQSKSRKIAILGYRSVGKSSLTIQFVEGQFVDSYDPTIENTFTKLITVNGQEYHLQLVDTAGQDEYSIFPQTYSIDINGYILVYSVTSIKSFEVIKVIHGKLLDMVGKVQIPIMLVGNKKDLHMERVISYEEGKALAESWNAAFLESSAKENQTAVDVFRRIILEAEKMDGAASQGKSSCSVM

As for “mTOR^ΔN: N-heat domain of mTOR (aa 60–167), 6xHis tagged, ∼13 kDa”, the equilibrium dissociation constant (Kd) – broadly, the equilibrium constant for the complex coming apart – is around 6.5 µM.
